Among the data in PMC11098746 (2024) are binding score values, retold here.

B1: 53 (protein)
chain: EKLISKLTKNGDLDLVLLYDIGFVDDSENDHMNSLENIAELGKNLLVRDNKNINLAYITYDDINVDLRIESRNNIGVDNENNYDKDNNAAYKFGSDKNIEEFRNVVLDTKLKSSYKNSAHLKALNYVGLKHFYNSEKESVKMVVMFMNTDGDYNNNNNNNMNNIASSYSAELNLVHYLFDRKNIILNIITRVAFKNYCHYIQQIGSNTNELLKCVLKNSFYNIAALTYEIIKYYDDISINAICHGWSEWSPCSVTCNMGYHFSKRDSLGYIKNSKSGLYKRKGRSCLEQRNLIIQECFNTACDHSLDICDNIYMDISILLDDSSNIALESWNKYIIPFVRKFITHFNINNNQINFALTTYSSHTYNWFNFANVLSKDKDKLLTYLEFFKFNFGSSTKNIKQAIQYMNDHVLNTNYRRNDAKKIMLIINSGEIDNKAVTSVPDIIQRLKDTHNVQVYSICINNQNVKNCRKLSTHSMEKYGSNFAFSLPNAADLRYNVLGIQKSICRNVAGAFRRKLRSGNKDDEDKKDDEYKEEDEYKEEDEYKEEDEYKEEDEYKEEDEYKEEDEYKEEDEDMKKDEDMKKDEDMKKDEYKKGYKDYKKDQSKNDNKAEERKDEGNIATSNEHHASEKTDDEDIITQYNEEDRHDNSNDNIIIDDEPVGQDNSIFKNENFFWGRGKHDSKYTSKLSINSLGDINEYNDDYNNYDYYDDDPTNRNKGFLKKNSIILKSLYNLNEDYVNNNINNDAGSTSSHCRNNNAGHNDIPHFKNMRKYNSETNIPCSSKSNKATNKKLLNRLYNMLFRKKKKYRIKNMDAHSKKKVEKFIENIKFSKENNDDNRKIDEQNIEIQFDTLLDGIFDFLQDYDNSALNAFNNAAPDDDFVYFSNTAPCGVSLMDFPIYDMENMEADVGGKRNDGDNNDDDDNNDDGDNNDDGDNNDDDDNDDKSNNNNNNNNNGDPSSNNNNNNNNNNGDPSSNNNNNNNGDPSSNNNDDGDADEKRNDYISQYNLVLKDKSHNNNYYMTNEHDERKIKKQENIDILSKEEDNIASNYNNELQRTKRSLDFPEIIIKENYENPKDIIHISKKEEANEANNAKGHINLKNKKEHNNVVDNVNPCNKQNINEEDNNINNAIKTARIGIFNKNKINCRNKKASKFDKIKRFNDKINKDNHPLITNVENKNEEIDVLQNNEDKKQKILPIIKNENAKETGQKYENNDVYEEHNKANINNNVEKLYKDKNSHHIKNQYDKGNLAENNEVTPIYSKDYDADDEEYEHWHGHQRDNKATP
modifications: bait human Fc-tagged dimer
B2: 70 (protein)
chain: NTYIYLKQDSFVFSNEFPTVEEKNQALGENYEIVTLTTKDNHKFTCWYIKTKDSENKPIMLYFQGNGGYLEKYMNLFNLIIERVDVNIFSCSNRGCGSNIAKPSEEYFYKDAHVYIEYVKTKNPKHLFIFGSSMGAAVAIDTALKQHDHISGLIVQNAFTSLKELSRYSHPFLNYFLFDYDMIIRSKMDNEAKIKNIAVPTLFTLSEMDEKVPTSHTRTLFQLSASTNKQLYLSKGGTHPNILKNDDGSYHKAMKKFIVTAISIREKNIQKAVERNPNTPN
modifications: bait human Fc-tagged dimer
B3: 39 (protein)
chain: GTIEIKLSEFVGDSVNLAAKLHGFFLELNVNIAFTVICSNGMKALNGICIPCPLGSYNNINEYIKNNNIYECTLCHNNAATKNEGSTSISQCLCLPGYELNNNDLCVPCKRGTWKTKLSNSPCIFHCYPNSYSLVQGSRSEEESKCKCKRGFYFVSKDSINFCDNCNIGYFCPGGYKIGEKKCPKNTANIAQNNFAISSCKCDVGFEPFDSSNLNAYNFKNDPIFNDYKDFLDDVKSSQICVPCKEGFYKNTVSEEKCKRCSDNVYTDGLQSTSISNCKKCEKGYYLQSEDSCIICPDNHYCPGAYINDPKYAIYENQKIPCGDKSLTIPPNNLNVAHLNCLCKKGFEFIKTDDNEFDCLEVPKNYYKSHLGNKEKEPCPENSVTLYTQTKSKVKCLCMPGYYWDLKEFKCIKCPKGHYCPGGYLKNCFNNQNLHSCKPQKKKCPLKNSATQTKESFSQSSCLCDKGYTINKEELRECIPCPINTYKDVISNAECTKCLTPYTTDGQIGSTKEEDCTCSGGFFFLNHCLPCSDKNTYCKGGKMIVNNKNKAIHYGPSKCPPNTAVSFETERPYNKGFCVCQKGFKHVYTTSDFTKICAPCERGFFKTIIGDFSCESKCKPNSASFVGTIHETHCFCLENYYFKNGICLNCPDGAYCEGGFQKETLLYMKKNEYYLDTSKIKHIMPVPKENYALYKLKTNIYNTDWFIVECPIKEACLYNEKCHESMTNFLCGECKKGYTNNFAKLNLCIKCSGHIMN
modifications: bait human Fc-tagged dimer
B4: 71 (protein)
chain: EERYNFNMDKMLKITCHINLHLKKNPHFTITYKKNLQECIDSCKTNIYCTGIEFSRKRVEYTQIILKNNKKIILGYFKCKQFYFQNIYDYSSYNLDSYLNEHIENQINIKSTLTYTNFIMRNKPDIIYTCSIDRDPKYLLYKNYKLVECVIGKFCPGNNAPYMISCPINSATIIPASEDVNKCLCLKGYSYVGVTSYRCSLCDRGSYKNSVGNNKCDNCPLTFSTTHRGSTNIKDCSCTSGNYLTFD
modifications: bait human Fc-tagged dimer
B5: 20 (protein)
chain: DIIIVDSNKDIQGFDPNSVLNLAENVFNIFLDTKTNNADIKTVYSSIFSNSKVTIDGTCSSMKELIKGRSLKYLDELGTEEYVNSDDVFNFAIFVYTVNGQPDIIQQVYKKHPNYISYIITCKESELFDNIEDAKDNKNVFHTNP
modifications: bait human Fc-tagged dimer
B6: 10 (protein)
chain: FRKYDKNKNKILISHSINNNNNAIKNNNNNNNAIKNNNNNNNAIKNNNNNNNAFSATSFSSEKNKNKAYTNVLKKKNIYIREESNKATNIKEDEEKNKKINNNDKETNYAFLSLKFFPFILTSLLHTGINQIPRNTEIELYEFEKSPMIRHMLVAEERKN
modifications: bait human Fc-tagged dimer
B7: 88 (protein)
chain: FENAIKKTKNQENNLALLPIKSTEEEKDDIKNGKDIKKEIDNDKENIKTNNAKDHSTYIKSYLNTNVNDGLKYLFIPSHNSFIKKYSVFNQINDGMLLNEKNDVKNNEDYKNVDYKNVNFLQYHFKELSNYNIANSIDILQEKEGHLDFVIIPHYTFLDYYKHLSYNSIYHKSSTYGKCIAVDAFIKKINEAYDKVKSKCNDIKNDLIATIKKLEHPYDINNKNDDSYRYDISEEIDDKSEETDDETEEVEDSIQDTDSNHAPSNKKKNDLMNRAFKKMMDEYNTKKKKLIKCIKNHENDFNKICMDMKNYGTNLFEQLSCYNNNFCNTNGIRYHYDEYIHKLILSVKSKNLNKDLSDMTNILQQSELLLTNLNKKMGSYIYIDTIKFIHKEMKHIFNRIEYHTKIINDKTKIIQDKIKLNIWRTFQKDELLKRILDMSNEYSLFITSDHLRQMLYNTFYSKEKHLNNIFHHLIYVLQMKFNDVPIKMEYFQTYKKNKPLTQ
modifications: bait human Fc-tagged dimer
B8: 82 (protein)
chain: GLCKPCTLENHYCEGGLESDITFNNKLIKGKFHTLPKKCPRGLGIPNIIKERNSINNCLCIHGKVQRTTENKNVECFPCPPNTFKENEYDNSCSGACPPFSTTFVGSSYENQCFCKNNYYLVSTDDENDANGNSINNNKNIYNNNNIYNNNNNNNNNNNNNFNNKADVKKKSCKICPIGAICNRGFNIYIYLKLLNDRSYNNINVIDHETPFPKYGYYAVYREKTNPAKSWDTLDDSAILNYVYPYHKLLLFIQKNIQKGNYFFLEKGNKFFLNDDFVEKMNEKSKYEEENANKFVTKSEIIHNVNTNNLKGKHNTLNNNNNNNNINKASSFLNQNNYNNDIIQLSSYENNPFKNLASTSEVSSNNNVISFIQNNDKTNNAANDNNIENLVDIFNKYVQEAKELQIQNRKFERIPDIHPCTIPNRCLGTLINLCSDGSTGYQCNNCAKNYDMSYFKSKCKKCQNLFYE
modifications: bait human Fc-tagged dimer
B9: 79 (protein)
chain: YLEQIKNGISGHYTEDHNIKNNNCISFSDYERSIKNFAISSHAENNYDNIINEYKKIKDINNNINILSSVHRKGRILYDSFLEINKLENDKKEKHEKEDEYEDNDESFLETEEYEDNEDEKYNKDEDDYAESFIETDEYEDNEDDKYNKDEDDYSESFIETDEYDDNEEEQYNKDEDDYTDSFIETDHYENNDDKNEEEEEYNDQDNDYGYNFLETDEYDDSEEYDYDDKEYGESFLEKEEGEEMKDEEMKDEEMKDVEMKDEEMKDEEMKYDEMKNEEMKYDEMKDEVMKDEEMKDEVMKDEEMKDEQMKYEEFKNEESKNEESKNEESKNEESKNEEFKNEESKNEEFKNEEFKNEDMSYDEYMGYKKKEEDESYNTFNGAKKNNAANSFLEKDLQGDSDDELHSTFYSKNVDKENYDDKNIFYGYSDNDDESFLETDSYEEYEDEDKDVEDEYEESFLQNDEKKMVFYDLYKPEENEAYYEKKQKKEEKEEKEEKEQSLNKQNDMEDQEDNEEYKFEEENKEDLLDVQQDEELPSEGKQKVKGKSFDNEHLNEIQNVADVHAFIQKDMKYLDDLIDEEQTIKDAVKKSAYKGNKKLGNNKKSQMILEEEPEENFEEDADEELNKLMEQEKNIVDKEIKNSKANKANKKLQFNNANKQNKMYMKNEYNNKAKNNKNNKFEQQNYDESYMDDDYEQNEEFNDNNQAEDMKETNELDKINDELLTDQGPNEDTLLENNNKIFDNKFVAHKKREKSISPHSYQKVSTKVQNKEDMENKEEKQLINDEAAMTAEELVELENTEDVNTPTMVETEEIDSDENGNKAS
modifications: bait human Fc-tagged dimer
B10: 36 (protein)
chain: QDEKSVKNICVCDFTDKLNFLPLEKTKILCELKPQYGEDIKIIANKEYEINCMNNAKVFCPLKDTFINNANIKLYSPKLHFEIKDITHKGKNAALYYLKIDEEASDIFFSCSIKPKQVSGLLEGEVRVNLKKHINEEYSIFNEEEDVHVCDFSKGNLDITPSAGFYLKNSRNVACIYRVIPNKLFLIKLPKLDIVTEKLLPSIVNCLSEFSFINFALKHVQEGDNYISFNVIFGEFKKHFNLACSLDLSDFQQEPCNLGKTANIAFIFSK
modifications: bait human Fc-tagged dimer
B11: 54 (protein)
chain: DQLDMGSVHNNNAVVGNSASHSPSSSSSSPSSSSSSSSSSPSASSSSSSSSPASSSSSPSSTSDDSKNAALDKIDEELQKKKKNEKL
modifications: bait human Fc-tagged dimer
B12: 11 (protein)
chain: LKVPIENAPFVFNKKENDIKYFLDKETPDDFLSNNAYSLDITLENFPNPFFHPSLCNRYGFKFSYICDPNKILSRNIADQIEEILNYQRRNSKHFCVDKEVPYVLGVALINKLPYGISADTFASQIFEYWKLSNKDCNDGVLLFFVKEDTHFILKWKKGAQSIINFRTATSMNKAFNQYLRKYSLEYSILSAVKLTSQYLTEEIIPPTQTAQK
modifications: bait human Fc-tagged dimer
B13: 63 (protein)
chain: FRGNNGHNSASSLYNGAQFIEQLNNAFTSAFLESQSMNKIGDDLAETISNELVSVLQKNSPTFLESSFDIKSEVKKHAKSMLKELIKVGLPSFENLVAENVKPPKVDPATYGIIVPVLTSLFNKVETAVGAKVSDEIWNYNSPDVSESEESLSDDFFD
modifications: bait human Fc-tagged dimer

In this test the target is FGFR4 ectodomain (Homo sapiens, UniProt P22455). Put plainly: AVEXIS normalised luminescence.
The molecule B1 had a binding score of 1.23. Molecule B2 registered a binding score of 0.951. To B3 belongs 0.948; to B4, 1.

Regarding B5, the binding score is 1.16. B6 yielded a binding score of 1.56. As for B7, the binding score is 1.03.

With B8, the binding score amounted to 1.25. As to B9, the binding score turned out to be 1.06. The molecule B10 yielded a binding score of 0.937. In the case of B11 it was 0.958; in that of B12, 1.58. B13 had a binding score of 1.23.
